The target in one assay is T1, DmKCC (Drosophila melanogaster, UniProt Q7KVH5).
T1 construct: gene kcc; full-length cDNA, N-terminal 8xHis and FLAG tags (no cleavage stated), Sf9 baculovirus expression, DDM/CHS Ni-NTA purified, reconstituted in azolectin proteoliposomes
T1 sequence (Q7KVH5 1-1028): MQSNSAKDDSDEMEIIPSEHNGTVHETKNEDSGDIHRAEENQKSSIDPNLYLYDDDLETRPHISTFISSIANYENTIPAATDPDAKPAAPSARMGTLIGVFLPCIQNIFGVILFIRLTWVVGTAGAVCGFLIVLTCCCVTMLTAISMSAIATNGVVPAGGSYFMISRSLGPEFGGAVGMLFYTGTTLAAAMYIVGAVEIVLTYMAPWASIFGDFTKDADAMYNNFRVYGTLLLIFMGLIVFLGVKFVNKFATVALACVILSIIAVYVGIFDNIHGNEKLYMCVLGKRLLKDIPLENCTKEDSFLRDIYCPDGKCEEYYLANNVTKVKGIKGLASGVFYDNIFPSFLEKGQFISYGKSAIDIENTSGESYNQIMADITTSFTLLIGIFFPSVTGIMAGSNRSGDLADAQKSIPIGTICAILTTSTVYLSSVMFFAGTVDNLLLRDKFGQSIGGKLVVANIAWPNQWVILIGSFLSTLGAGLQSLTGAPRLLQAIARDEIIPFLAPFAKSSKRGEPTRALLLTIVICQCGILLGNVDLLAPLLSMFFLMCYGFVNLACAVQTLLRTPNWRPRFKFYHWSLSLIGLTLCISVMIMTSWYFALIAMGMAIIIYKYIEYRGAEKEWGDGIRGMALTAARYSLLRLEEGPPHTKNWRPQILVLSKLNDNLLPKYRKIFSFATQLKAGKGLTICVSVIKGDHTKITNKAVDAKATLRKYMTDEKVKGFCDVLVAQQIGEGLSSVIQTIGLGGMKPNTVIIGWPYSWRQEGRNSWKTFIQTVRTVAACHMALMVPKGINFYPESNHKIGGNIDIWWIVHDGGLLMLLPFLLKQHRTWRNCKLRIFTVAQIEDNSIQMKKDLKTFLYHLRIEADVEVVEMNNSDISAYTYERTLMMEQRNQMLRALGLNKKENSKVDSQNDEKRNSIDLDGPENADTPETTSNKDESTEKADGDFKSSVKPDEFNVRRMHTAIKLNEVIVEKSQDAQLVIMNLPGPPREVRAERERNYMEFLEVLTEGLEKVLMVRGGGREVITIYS
As to the kind of experiment: K+ influx into proteoliposomes, fluorescent K+ probe (ION Potassium Green-2 TMA+). The format is biochemical.

Assay [1] addresses Hydra vulgaris K+-Cl- cotransporter (HvKCC) (Hydra vulgaris). As to the kind of experiment: SEC-MALS; SEC-MALLS; protein at 1.0 mg/mL on Superdex 200 10/300 in 20 mM HEPES pH 7.4, 150 mM NaCl, 50 mM KCl, 0.015% DDM, 0.003% CHS, 5% glycerol; protein conjugate analysis (ASTRA 6); single measurement. For orientation: In gel filtration, larger molecules generally elute earlier.
In assay [2] the target is Drosophila melanogaster K+-Cl- cotransporter (DmKCC) variant B (Drosophila melanogaster). As to the kind of experiment: SEC; Superdex 200 10/300 gel filtration in 20 mM HEPES pH 7.4, 150 mM NaCl, 50 mM KCl, 0.015% DDM, 0.003% CHS, 5% glycerol; elution profile compared with that of HvKCC, whose dimer was verified by SEC-MALLS.

On to `O=S(=O)(O)c1cc(N=C=S)ccc1C=Cc1ccc(N=C=S)cc1S(=O)(=O)O` [DIDS, 4,4′‐diisothiocyano‐2,2′‐stilbenedisulfonic acid], for which the IC50 (in general, the concentration that inhibits the measured activity by half) against DmKCC was found to be 25 nM.

For the molecule “Hydra vulgaris K+-Cl- cotransporter (HvKCC) (natural protein)”, the stoichiometry N (commonly a count of units in the complex or per binding partner) in assay [1] is 2. In the case of “Drosophila melanogaster K+-Cl- cotransporter (DmKCC) variant B (natural protein)”, in assay [2], the stoichiometry N came to 2.
